Assay results as given in the supplement of paper PMC10567573.

B1: KRT13 (parent)
chain: TSSASVTTTSNASGRRTSDVRRP
B2: PTPN9 (parent)
chain: TQHLPRECLPENLGGYVKIDLATW

Variants of: B1
Test: protein stability index of a GFP-peptide fusion (GPS, HEK-293T) (PSI 1-6); higher = more stable
Conditions: c terminus: native
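Further: lentivirally expressed fusions sorted by FACS into six bins by GFP to DsRed ratio, PSI derived from sequencing read proportions per bin multiplied by bin number.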

Protein stability index: each site, then its substitutions
G14: R 2.21, I 2.46, Q 2.23, Y 2.32, E 2.97, D 1.88, M 3.29, T 2.3, P 1.88, A 3.4, S 3.57, V 2.64, C 1.75, N 2.03, L 3.71
N11: E 3.41, V 1.98, T 2.74, H 1.8, D 1.71, P 1.12, I 1.08, L 2.98, G 2.7, A 3.09, F 2.92, R 2.36, K 1.86, Y 3.34
R15: I 2.36, D 2.25, Y 2.03, H 2.61, P 1.73, T 1.94, L 2.37, C 2.17, A 2.17, E 2.43, K 1.49, Q 2.53, N 2.6, F 1.88
S3: H 2.54, D 2.57, W 1.65, E 2.8, Y 1.46, C 1.96, G 3.79, I 2.32, L 1.99, V 1.93, T 1.81, A 2.61, K 2.86, Q 2.19
R16: W 2.87, P 2.52, E 2.08, C 1.27, Q 1.52, S 2.11, M 2.14, D 1.66, F 2.27, K 1.59, T 3.07, G 1.04, A 1.65, Y 3.97, I 2.33, H 2.37, N 2.05
V6: L 2.31, K 2.39, Q 1.69, T 3.08, D 2.88, G 2.71, R 1.97, P 2.51, A 2.14, S 1.09, F 1.93, N 2.44, C 4.46
S2: E 3.22, T 2.82, Y 2.08, Q 1.06, K 3.48, L 2.02, P 3.07, G 2.56, V 3.9, F 2.04, D 2.46, N 3.25
S5: N 2.44, F 3.27, I 2.37, D 2.48, K 1.9, T 4.31, H 3.91, G 2.79, M 1.88, C 3.15, E 3.07, Q 2.59, A 2.49
T7: R 2.97, Y 4.47, W 3.38, G 1.17, P 1.66, F 2.24, A 2.46, I 1.93, M 3.08, Q 1.3, H 2.54, D 3.4, L 2.23, N 1.45, K 2.19
D19: F 2.83, L 2.61, N 2.26, K 2.25, H 1.73, R 2.08, C 2.52, P 2.86, I 2.44, M 3.59
S18: A 4.56, P 2.02, K 1.3, T 2.85, E 2.45, M 1.77, G 1.23, D 2.19, V 3.51, Q 2.82, F 1.56, L 2.03
S10: E 2.03, C 4.58, D 2.05, F 2.96, T 1.6, V 2.99, H 2.48, Y 1.98, Q 2.12, P 2.11
T8: E 3.31, A 3.85, G 2.26, Q 3.25, D 2.08, P 1.64, Y 3.44, K 3.7, F 2.35, N 2.98
S13: Q 1.37, T 5.7, G 1.7, V 3.04, W 1.04, E 1.7, L 2.47, R 1.4, P 2.41, D 1.45, A 2.97, K 1.94
A12: F 3.48, L 2.53, P 2.25, S 2.19, D 3.12, C 3.03, H 3.71, I 2.81
A4: P 1.7, H 2.6, S 1.03, T 2.02, D 3.4, G 2.25, Y 2.51, Q 2.03, I 3.97, L 3.6, E 2.39, K 3.21, W 2.44, N 2.16
T9: N 1.81, D 2.05, P 1.97, F 2.13, E 2.58, V 2.72, K 2.19, C 1.54, G 1.73, H 3.88
T1: V 2.42, H 2.22, E 2.33, N 1.34, Y 3.12, F 4.09, W 2.43, I 2.25, D 2.46, A 3.56, Q 2.54
T17: N 2.15, E 1.63, L 1.45, D 2.62, Y 2.3, H 2.66, C 2.94, I 3.61, S 2.16, M 2.44

Variants of: B2
Test: as above
Conditions: c terminus: a fixed tail appended

Protein stability index, by site and new letter:
T23: E 2.73, A 1.83, D 2.37, C 1.38, W 2.94, G 1.9, F 2.17, Y 1.71, M 1.83, H 2.09, P 1.99, I 2.02, S 2.02, V 3.6, R 1.89, Q 2.58, K 2.38, L 1.76, N 2.06
L21: T 2.27, G 2.85, V 2.36, P 2.78, I 1.65, R 2.97, D 3.46, A 2.09, H 2.17, Q 2.96, M 1.88, E 3.27, S 2.73, W 1.76, K 3.35, N 2.63, Y 1.97, C 2.06, F 1.76
W24: S 3.06, P 2.86, V 2.06, E 4.07, L 2.12, M 2.05, Q 3.13, H 2.66, G 3.38, N 3.51, F 1.8, A 2.84, R 2.61, D 3.88, Y 1.91, T 3, C 2.28, I 1.94, K 3.59
I19: S 2.76, Y 2.46, V 2.12, T 2.94, W 2.46
D20: C 1.94, V 2.73, T 2.51, R 1.9, A 2.07, Y 2.68, F 2.58, W 3.09, E 1.67, L 1.66, N 1.78, K 1.94, Q 1.6, H 2.68, G 1.78, S 1.92, P 1.69, I 2.01, M 1.69
A22: M 1.65, N 2.35, H 1.78, W 2.09, V 2.08, R 1.23, T 1.9, Q 2.01, G 1.64, Y 2.21, D 3.18, F 2.43, C 1.92, S 1.72, P 2.49, E 2.35, K 2.08, I 1.87, L 3.29
